Assay results from PMC6450059.
pKd: −log10 of the molar value. One block for each substance: values may come before it.

What was measured:
[1] = target: PmScsCΔLinker (Proteus mirabilis); test: SAXS; PmScsCΔLinker, concentration series 0.1-10.0 mg ml^-1 in 10 mM HEPES pH 7.4, 150 mM NaCl, 283 K; linear combination of monomer, dimer and trimer scattering curves, global (common K d and K t) and independent optimization; K d: monomers and dimer; K t: monomer, dimer and trimer
[2] = target: PmScsCΔLinker (Proteus mirabilis); test: crystal structure; PmScsCΔLinker 40 mg ml^-1 in 10 mM HEPES pH 7.4, 150 mM NaCl; 0.1 M HEPES pH 7, 32%(v/v) Jeffamine M-600; 293 K; space group H32, one protomer in the asymmetric unit, trimer through crystallographic symmetry
[3] = target: Suppressor of copper sensitivity protein C from Proteus mirabilis (PmScsC) (Proteus mirabilis); test: SAXS; native PmScsC, concentration series 0.1-10.0 mg ml^-1 in 10 mM HEPES pH 7.4, 150 mM NaCl, 283 K; linear combination of monomer and trimer scattering curves, global (common K t) and independent optimization; K t: monomers and trimer

Substance: PmScsCΔLinker (enzyme)
K t (equilibrium constant for trimer formation, from monomer and dimer) [1]: 730 µM
pKd [1]: 3.68
dimer fraction at 0.1 mg/ml (global optimization) [1]: 0.03
dimer fraction at 0.1 mg/ml (independent optimization) [1]: 0
dimer fraction at 0.5 mg/ml (global optimization) [1]: 0.12
dimer fraction at 0.5 mg/ml (independent optimization) [1]: 0
dimer fraction at 2.0 mg/ml (global optimization) [1]: 0.27
dimer fraction at 2.0 mg/ml (independent optimization) [1]: 0.33
dimer fraction at 5.0 mg/ml (global optimization) [1]: 0.41
dimer fraction at 5.0 mg/ml (independent optimization) [1]: 0.37
dimer fraction at 10.0 mg/ml (global optimization) [1]: 0.48
dimer fraction at 10.0 mg/ml (independent optimization) [1]: 0.49
monomer fraction at 0.1 mg/ml (global optimization) [1]: 0.97
monomer fraction at 0.1 mg/ml (independent optimization) [1]: 1
monomer fraction at 0.5 mg/ml (global optimization) [1]: 0.88
monomer fraction at 0.5 mg/ml (independent optimization) [1]: 0.94
monomer fraction at 2.0 mg/ml (global optimization) [1]: 0.71
monomer fraction at 2.0 mg/ml (independent optimization) [1]: 0.67
monomer fraction at 5.0 mg/ml (global optimization) [1]: 0.53
monomer fraction at 5.0 mg/ml (independent optimization) [1]: 0.55
monomer fraction at 10.0 mg/ml (global optimization) [1]: 0.4
monomer fraction at 10.0 mg/ml (independent optimization) [1]: 0.37
trimer fraction at 0.1 mg/ml (global optimization) [1]: 0
trimer fraction at 0.1 mg/ml (independent optimization) [1]: 0
trimer fraction at 0.5 mg/ml (global optimization) [1]: 0
trimer fraction at 0.5 mg/ml (independent optimization) [1]: 0.06
trimer fraction at 2.0 mg/ml (global optimization) [1]: 0.02
trimer fraction at 2.0 mg/ml (independent optimization) [1]: 0
trimer fraction at 5.0 mg/ml (global optimization) [1]: 0.07
trimer fraction at 5.0 mg/ml (independent optimization) [1]: 0.08
trimer fraction at 10.0 mg/ml (global optimization) [1]: 0.12
trimer fraction at 10.0 mg/ml (independent optimization) [1]: 0.1
stoichiometry N [2]: 3

K t (equilibrium constant for trimer formation, monomers and trimer) [3]: 6.3e-18 M^2
monomer fraction at 0.1 mg/ml (global optimization) [3]: 0.01
monomer fraction at 0.1 mg/ml (independent optimization) [3]: 0.21
monomer fraction at 0.5 mg/ml (global optimization) [3]: 0
monomer fraction at 0.5 mg/ml (independent optimization) [3]: 0.04
monomer fraction at 2.0 mg/ml (global optimization) [3]: 0
monomer fraction at 2.0 mg/ml (independent optimization) [3]: 0
monomer fraction at 5.0 mg/ml (global optimization) [3]: 0
monomer fraction at 5.0 mg/ml (independent optimization) [3]: 0
monomer fraction at 10.0 mg/ml (global optimization) [3]: 0
monomer fraction at 10.0 mg/ml (independent optimization) [3]: 0
stoichiometry N [3]: 3
trimer fraction at 0.1 mg/ml (global optimization) [3]: 0.99
trimer fraction at 0.1 mg/ml (independent optimization) [3]: 0.79
trimer fraction at 0.5 mg/ml (global optimization) [3]: 1
trimer fraction at 0.5 mg/ml (independent optimization) [3]: 0.96
trimer fraction at 2.0 mg/ml (global optimization) [3]: 1
trimer fraction at 2.0 mg/ml (independent optimization) [3]: 1
trimer fraction at 5.0 mg/ml (global optimization) [3]: 1
trimer fraction at 5.0 mg/ml (independent optimization) [3]: 1
trimer fraction at 10.0 mg/ml (global optimization) [3]: 1
trimer fraction at 10.0 mg/ml (independent optimization) [3]: 1
Substance: Suppressor of copper sensitivity protein C from Proteus mirabilis (PmScsC) (enzyme)
